What all share (assay): SPR
(In general: In SPR one partner is held on a chip, and binding of the other changes the refractive index at the surface.)

Series [1] concerns the target T1, IRF4 DBD WT (human, UniProt Q15306 21-130).
T1 sequence: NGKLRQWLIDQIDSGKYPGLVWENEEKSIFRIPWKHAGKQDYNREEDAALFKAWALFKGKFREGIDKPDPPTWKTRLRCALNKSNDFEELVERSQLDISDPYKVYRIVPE

The target in series [2] is T2, IRF4 DBD K59A (human, UniProt Q15306 21-130, K59A).
T2 sequence: T1 sequence with K39A

The target of series [3] is T3, IRF4 DBD L116R (human, UniProt Q15306 21-130, L116R).
T3 sequence: T1 sequence with L96R

Substitutions are numbered along the chain they refer to.

By Kd is commonly meant the concentration at which binding is half-saturated. A high value points to a looser complex.

B1: AICE2 (dsDNA)
DNA 1: GAGGTTTCGGGATGACTAATACT
DNA 2: AGTATTAGTCATCCCGAAACCTC
In series [1], B1 yielded a Kd of 1380 ± 510 nM.

B2: ISRE (SPR) (dsDNA)
DNA 1: CAACTGAAACCGAGAAAGC
DNA 2: GCTTTCTCGGTTTCAGTTG
Turning to B2, the Kd in series [2] was 660 ± 100 nM; in series [3], 60 ± 40 nM; in series [1], 250 ± 150 nM.

B3: EICE1 (dsDNA)
DNA 1: TAAAAGGAAGTGAAACCAAG
DNA 2: CTTGGTTTCACTTCCTTTTA
In the case of B3, the dissociation constant (Kd) in series [3] was found to be 60 ± 60 nM; in series [1] it was 260 ± 70 nM.

B4: AICE1 (dsDNA)
DNA 1: TAGTGCAGAAATGAGTCAGAGA
DNA 2: TCTCTGACTCATTTCTGCACTA
B4: the Kd stood at 2210 ± 30 nM in series [3] and 2800 ± 480 nM in series [1].

Values taken from PMC7913761.
